# ± gives the standard error. Variants at the floor of the assay were thinned out.
# B1: glmS ribozyme (parent)
# chain: AUAAAAGCGCCAGAACUACAGAAAUGUAGUUGACGAGGAGGAGGUUUAUCGAAUUUUCGGCGGAUGCCUCCAAA
# Variants of: B1
# Assay: self-cleavage kobs at 2500 uM GlcN6P; higher = faster cleavage; RNA array
# Settings: with glucosamine-6-phosphate
# Method in brief: (§1)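 Ribozyme variants carrying barcodes were transcribed in situ on sequenced MiSeq chips by E. coli RNA polymerase and tracked at 37 °C with a hybridised Cy3 probe. They were exposed to 40 μM to 10 mM glucosamine-6-phosphate in HEPES/KCl/Mg(OAc)2 buffer. kobs came from exponential decay fits of normalised per-tile medians, and kcat and KM from weighted Michaelis–Menten fits.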
row,Variant,self-cleavage kobs at 2500 uM GlcN6P
1,AUAAAUGCGCCAAAACUACAGAAAUGUAGUUGACCAGGAGGAGGUUUAUCGCAUUUUCGGCGGAUGCCUCCAAA [A6U G13A G35C A52C],< 1e-05 s⁻¹
2,AUAAAAACGCCAGGACUACAGAAAUGUAGUUGACGAGAAGGAGGUUUAUCGAAUUUUCGGCGGAUGCCUCCAAA [G7A A14G G38A],< 1e-05 s⁻¹
3,AUAAAUGCGCCAGAACUACAGAAAUGUAGUUGACGCGGAGGAGGUUUAUCGAAUUUUCGGCGGAUGGCUCCAAA [A6U A36C C67G],< 1e-05 s⁻¹
4,AUAAAUGCGCCUGAACUACAGAAAUGUAGUUGACGAGGAGGAGGUCUAUUGAAUUUUCGGCGGAUGCCUCCAAA [A6U A12U U46C C50U],< 1e-05 s⁻¹
5,AUAAAUGCGCCAGAACUACAGAAAUGUAGUUGACGAGGAGGAGUUUUAUCGAAUUUUCGGCGCAUGCCUCCAAA [A6U G44U G63C],< 1e-05 s⁻¹
6,AUAAAUGCGCCAGAACUACAGAAAUGUAGUUCAGGAGGAGGAGGUUUAUCGAAUGAUCGGCGGAUGCCUCCAAA [A6U G32C C34G U55G U56A],< 1e-05 s⁻¹
7,AUAAAGGCGCCAGAACUACAGAAAUGUAGUUGACGAGGAGGAGGUUUGUCGAAUUUUCGGCGGAUGCCUCAAAA [A6G A48G C71A],< 1e-05 s⁻¹
8,AUAAAUGCGCCAGAACUACAGAAAUGUAGUUGACGACGAGGAGGUUUAUCGAAUUUUCGGCGGAUGCUUCCAAA [A6U G37C C68U],< 1e-05 s⁻¹
9,AUAAAAACGCCAGAACUACAGAAAUGUAGUUGACGAGGAGGUGGUUUAUCGAAUUUUCGGCGGAUGCCUCCAAA [G7A A42U],< 1e-05 s⁻¹
10,AUAAAGGCGCGAGAACUACAGAAAUGUAGUUGACGAGGAGGAGGUUAAUCGAAUUUUCGGCGGAUGCCUCCAAA [A6G C11G U47A],< 1e-05 s⁻¹
11,AUAAAGGCGCCAGAACUACAGAAAUGUAGUUGACGAGAAAGAGGUUUAUCGAAUUUUCGCCGGAUGCCUCCAAA [A6G G38A G40A G60C],< 1e-05 s⁻¹
12,AUAAAUGCGCCAGCACUACAGAAAUGUAGUUGACGAGGAGGAGGAUUGUCGAAUUUUCGGCGGAUUCCUCCAAA [A6U A14C U45A A48G G66U],< 1e-05 s⁻¹
13,AUAAAGGCGCCAGAACUACAGAAAUGUAGUUGACGCGGAGGAGGUUUAUCGAAUCUUCGGCGGAUGCCUCCAAA [A6G A36C U55C],< 1e-05 s⁻¹
14,AUAAAUGCGCCAGAACUACAGAAAUGUAGUUGACGAGGAGGAGGUUUAUUGAAUUUUCGGCGGAUGCGUCAAAA [A6U C50U C68G C71A],8.39e-05 ± 3e-05 s⁻¹
15,AUAAAGGCGCCAGAACUACAGAAAUGUAGUUGACGAGGAGGAGGUUUAUGGAAUUUUCGGUGGAUGCCUCCAAA [A6G C50G C61U],0.000108 ± 3.5e-05 s⁻¹
16,AUAAAUGCGCCCGAACUACAGAAAUGUAGUUGACGAGGAGGAGGUUUAUCAAAUUUUCGGCGGAUGCCUCCAAA [A6U A12C G51A],< 1e-05 s⁻¹
17,AUAAAUGCGCCAGAACUACAGAAAUGUAGUCGACGAGGAGGAGGUUUAUAGAAUUGUCGGCGGAUGCCUCCAAA [A6U U31C C50A U56G],< 1e-05 s⁻¹

row,Variant,self-cleavage kobs at 2500 uM GlcN6P
1,AUAAAUGCGCCAGAACUACAGAAAUGUAGUUGACGAGGUGCAGGUUUAUCGAAUUUUCGGCGGAUGCCUCCAAA [A6U A39U G41C],< 1e-05 s⁻¹
2,AUAAAGGCGCCAGAACUACAGAAAUGUAGAUGACGAGGGGGAGGUUUAUCGAAUUUUCGGCGGAUGCCUCCAAA [A6G U30A A39G],8.54e-05 ± 2.8e-05 s⁻¹
3,AUAAAUGCGCCAGUACUACAGAAAUGUAAUUGAGGAGGAGGAGGUUUAUCGAAUUUUCGGCGAAUGCCUCCAAA [A6U A14U G29A C34G G63A],< 1e-05 s⁻¹
4,AUAAAGGCGCCAGAACUACAGAAAUGUAGUUGACGAGGAGGAGGUUUAUCGAAUUUUCGGCGGACGCUUCCAAA [A6G U65C C68U],< 1e-05 s⁻¹
5,AUAAAUGCGCCAGAACUACAGAAAUGUAGUUGACGAGGAGGAGGUUUAUCGAAUUUUAGGCGGAUGACUCCAAA [A6U C58A C67A],< 1e-05 s⁻¹
6,AUAAAUGCGCCAGAACUACAGAAAUGUAGUUGACGCGGAGGAGGUUUAUCGAAUGUUCGGCGGAUGCCUCCAAA [A6U A36C U55G],< 1e-05 s⁻¹
7,AUAAAUGCGCCAGAAUUACAGAAAUGUAGUUGACGAGGAGGAGGUUUAUCGAGUUUUCGGCGGAUGCCUCGAAA [A6U C16U A53G C71G],5.25e-05 ± 2.3e-05 s⁻¹
8,AUAAAGGCGCCAGAACUACAGAAAUGUAGUUGACGAGGAGGAGGUUUAUCGAAGUUUCGGCGGAUGCCUUCAAA [A6G U54G C70U],0.0001 ± 2.2e-05 s⁻¹
9,AUAAACGCGCCAGAACUACAGAAAUGUAGUUGACGAGGAGGAGUUUUAUCGAAGUUCCGGCGGAUGCCUCCAAA [A6C G44U U54G U57C],< 1e-05 s⁻¹
10,AUAAAGGCGCCAGAACUACAGAAAUGUAGUUGACGAGGAGGAGGUUUAUCGAAUCUUCGGCGGAUGCCUCAAAA [A6G U55C C71A],< 1e-05 s⁻¹
11,AUAAAUGCGCCAGAACUACAGAAAUGUAGUUGACGAGGGGGAGGUUUAUCGAAUUUUCGGCGGAUGCCUUCAAA [A6U A39G C70U],8.18e-05 ± 3.2e-05 s⁻¹
12,AUAAAUGCGCCAGAAGUACAGAAAUGUAUUUGACGAGGAGGACGUUGAUCGAACUUUCGGCGGAUGCCUCCAAA [A6U C16G G29U G43C U47G U54C],< 1e-05 s⁻¹
13,AUAAAUGCGUCCGAACUACAGAAAUGUAGUUGACGAGGAGGAGGUUUAUCGAAUUUUCGACGGAUGUCUCCAAA [A6U C10U A12C G60A C67U],< 1e-05 s⁻¹
14,AUAAAGGCGCCAGAACUACAGAAAUGUAGUUGACGAGGAGGAGGUUUAUUGAAUUUUCGGCGGCUGCCUCUAAA [A6G C50U A64C C71U],< 1e-05 s⁻¹
15,AUAAACGCGCCAGAACUACAGAAAUGUAGUCGACGAGGAGGAGGUUUAUCGAAUUUUCCGCUGAUGCCUCCAAA [A6C U31C G59C G62U],< 1e-05 s⁻¹
16,AUAAAUGAGCCAGAACUACAGAAAUGUAGUUGACGAGGAGGAGGUUUAUCGAAUUAUCGGCGGAUGCCUCCAAA [A6U C8A U56A],< 1e-05 s⁻¹
17,AUAAAAACGCCAGAACUACAGAAAUGUAGUUGACGGGAAGGAGGUUGAUCGAGUUUUCGGCGGAUGCCUCCAAA [G7A A36G G38A U47G A53G],< 1e-05 s⁻¹

# Variants of: B1
# Assay: self-cleavage kobs at 10000 uM GlcN6P; higher = faster cleavage; RNA array
# Settings: with glucosamine-6-phosphate
# Method in brief: as §1
row,Variant,self-cleavage kobs at 10000 uM GlcN6P
1,AUAAAUGCGCCAGAACUACAGAAAUGUAGUUGACGACGAGGAGGUUUAUCGAAUUUUCGGCGGAUGCUUCCAAA [A6U G37C C68U],< 1e-05 s⁻¹
2,AUAAAAACGCCAGAACUACAGAAAUGUAGUUGACGAGGAGGUGGUUUAUCGAAUUUUCGGCGGAUGCCUCCAAA [G7A A42U],< 1e-05 s⁻¹
3,AUAAAGGCGCCAGAACUACAGAAAUGUAGUUGACGAGAAAGAGGUUUAUCGAAUUUUCGCCGGAUGCCUCCAAA [A6G G38A G40A G60C],< 1e-05 s⁻¹

# From the supplement of paper PMC7125110
